Test system: MS2 coat protein
Test: apparent KD of MS2 coat protein; designed switch direction (-1 OFF switch, 1 ON switch): -1; higher = weaker reporter binding
Procedure, shortened: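 On Illumina chips, designed RNA switches with common flanks were made by stalled E. coli RNA polymerase. Titrations with SNAP-549-labelled MS2 coat protein, doubling from 0.7 or 1.5 nM to 3 µM, were done with no input, with 200 uM small-molecule ligand, or with an oligonucleotide input. Apparent KD is the median per design over clusters, from curve fits of normalised cluster fluorescence.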

[1] = input ligand: microRNA oligo, concentration not stated
[2] = Eterna round: R95, input ligand: microRNA oligo, concentration not stated
[3] = Eterna round: R95, input ligand: FMN 200 uM
[4] = Eterna round: R95, input ligand: none

Row | Sequence | apparent KD of MS2 coat protein (input ligand: FMN 200 uM) [µM] | apparent KD of MS2 coat protein (input ligand: none) [µM] | apparent KD of MS2 coat protein [1] [µM] | apparent KD of MS2 coat protein [2] [µM] | apparent KD of MS2 coat protein [3] [µM] | apparent KD of MS2 coat protein [4] [µM]
1 | AAAUUAGCAAGUAGAUCCGACAUGAGGAUCACCCAUGUAAUCUAAUAUUACGCUGCAUGAGAGUGCGCUCGUCUUAG [Sensor-V1 #16] (Eterna round: R97, puzzle: Sensor, turn-off variant 1) | 0.211 | 0.238 |  |  |  | 
2 | AAAUUAGCAAGUAGGUCCGACAUGAGGAUCACCCAUGUAAUCUGAAAUUACGCUGCAUGAAAGUGCGCUCGUCUUAG [Sensor-V1 #10] (Eterna round: R97, puzzle: Sensor, turn-off variant 1) | 0.111 | 0.168 |  |  |  | 
3 | AAAUUAGCAAGUAGGUCCGACAUGAGGAUCACCCAUGUUAUCUGAAAUAACGCUGCAUGAUUGUGCGCUCGUCUUAG [Sensor-V1 #8] (Eterna round: R97, puzzle: Sensor, turn-off variant 1) | 0.0691 | 0.0731 |  |  |  | 
4 | AAAUUGGUAGAGGAUAUCGUACAGGAAACGAUGCGAGAAGGCUGCACAUGAGGAUCACCCAUGUUCAGUUGCGA [EX6 #41] (Eterna round: R97, puzzle: Exclusion 6) | 0.0179 | 0.0176 |  |  |  | 
5 | AAAUUGUGAGGAUAUCCAAUAUAUGACAUGAGGAUCACCCAUGUUUCCACUCGUACCUCCGGAGAAGGCACUUAAA [Ex5 #44] (Eterna round: R97, puzzle: Exclusion 5) | 0.0271 | 0.0255 |  |  |  | 
6 | AACAAGCUUUAAAGAUCCUACAUGAGGAUCACCCAUGUGCUCGUCUUGUAACGUACUGUGACGAAAGUCACGGUACG [JL TOV1 3.27] (Eterna round: R97, puzzle: Sensor, turn-off variant 1) | 0.205 | 0.278 |  |  |  | 
7 | AACAGUCUGGAGGAUAUGCUGGAUUAAUAUCUGGCAGAAGGCUUGACAUGAGGAUCACCCAUGUAAAUACUACC [Omei Ex6 A3] (Eterna round: R97, puzzle: Exclusion 6) | 0.0259 | 0.0208 |  |  |  | 
8 | AACAGUGUAGGAUAUACAGGGCAAACGGCACCCGUCUCCGGACAUGAGGAUCACCCAUGUAGAAGGACACCUAU [EX2 C.16] (Eterna round: R97, puzzle: Exclusion 2) | 0.246 | 0.0474 |  |  |  | 
9 | AACAUGUGAGGAUAUGAGAACAGUCCGGAGGACUGUGUAAAUUAGAAGGCACAUGAGGAUCACCCAUGUGACCU [Laonar] (Eterna round: R97, puzzle: Exclusion 4) | 0.0326 | 0.0158 |  |  |  | 
10 | AACCUACAUGAGGAUCACCCAUGUGAGGAUAUAUUGGUAUUGAUGUUAUUUUUUAGAGGUAGAAGGCGCGUGAU [JR_Exc1_Sub022] (Eterna round: R97, puzzle: Exclusion 1) | 0.015 | 0.014 |  |  |  | 
11 | AACCUACAUGAGGAUCACCCAUGUGAGGAUAUAUUGUUAUGGAUGUUAUUUUGUAGUGGUAGAAGGCGCGUGAU [JR_Exc1_Sub024] (Eterna round: R97, puzzle: Exclusion 1) | 0.019 | 0.0159 |  |  |  | 
12 | AACCUGAGGCAAAGCUUUAGGUGUACAUGAGGAUCACCCAUGUAGGAUAUGGUAAGCAAAGCUUACCAGAAGGACAUAAUGAUG [Mat - Exclusion NG 3 - Mod of JL - D48] (Eterna round: R96, puzzle: Exclusion NG 3) | 0.134 | 0.0902 | 0.0701 |  |  | 
13 | AACCUGAGGCUUUGCUUUAGGUUUACAUGAGGAUCACCCAUGUAGGAUAUGGUAGGCAUAGCUUACCAGAAGGACAUGAAAAUU [Mat - Exclusion NG 3 - Mod of JL - D29] (Eterna round: R96, puzzle: Exclusion NG 3) | 0.293 | 0.0433 | 0.0341 |  |  | 
14 | AACGAUCUAGGAUAUACAUGAGGAUCACCCAUGUAAGAGCUCAAACCGAGCUCCCUCUGUAGAAGGAGGUCAAA [Atquteuson] (puzzle: Exclusion 3) |  |  |  | 0.0485 |  | 
15 | AACUCUGAGAAGGAUAUUCAGUGGGAAACGACAGAAGAAGGUUUCACAUGAGGAUCACCCAUGUCGAAUAGUGA [EX6 #75] (Eterna round: R97, puzzle: Exclusion 6) | 0.0468 | 0.0488 |  |  |  | 
16 | AAGAAACAUGAGGAUCACCCAUGUGAGGAUAUGAAAAAUAAAAGAAAAGAAAGAAUAAUCAGAAGGCACAAAGG [Mat - Mod of Hog D10] (puzzle: Exclusion 1) |  |  |  | 0.0373 | 0.0514 | 0.0414
17 | AAGAAACAUGAGGAUCACCCAUGUGAGGAUAUGAAUAAGAAAAGAAAAGAAAGAAGAAUCAGAAGGCACAAAGG [salish99-ex1_r3_045] (puzzle: Exclusion 1) |  |  |  | 0.0405 | 0.0495 | 0.0372
18 | AAGAAACAUGAGGAUCACCCAUGUGAGGAUAUGACUAAGAAAAGAAAAGAAAGAAGAUUCAGAAGGCACAAAGG [salish99-ex1_r3_062] (puzzle: Exclusion 1) |  |  |  | 0.0423 | 0.0912 | 0.0461
19 | AAGAAACAUGAGGAUCACCCAUGUGAGGAUAUGAGAAAGAAAAGAAAAGAAAGAAGAUUCAGAAGGCACAAAGG [salish99-ex1_r3_035] (puzzle: Exclusion 1) |  |  |  | 0.0439 | 0.0919 | 0.05
20 | AAGAAACAUGAGGAUCACCCAUGUGAGGAUAUGAUUAAGAAAAGAAAAGAAAGAAGAGUCAGAAGGCACAAAGG [salish99-ex1_r3_063] (puzzle: Exclusion 1) |  |  |  | 0.0488 | 0.0849 | 0.0618
21 | AAGAAACAUGAGGAUCACCCAUGUGAGGAUAUGCAAGAAAGAAAGAAAGAAAGAAGAAGCAGAAGGCACAAAGG [Gaius Turranius] (Eterna round: R96, puzzle: Exclusion 1) | 0.0847 | 0.0507 | 0.0297 |  |  | 
22 | AAGAACUAAGGAUAUACAUGAGGAUCACCCAUGUCUUUUACAUGUUACUGGCCCGCAUGUAGAAGGUAGAAAAG [Tianrasoed] (Eterna round: R96, puzzle: Exclusion 3) | 0.182 | 0.085 | 0.0744 |  |  | 
23 | AAGAACUUAGGAUAUACAUGAGGAUCACCCAUGUAGCUUCACUUGGGCCUGAGCCCGUGUAGAAGGAAGAAAAU [Arge] (Eterna round: R96, puzzle: Exclusion 3) | 0.0683 | 0.0735 | 0.0476 |  |  | 

Source: the supplement of paper PMC9170038
